Kd data for one molecule are collected here from publication PMC5780041, “Endosomal Rab cycles regulate Parkin-mediated mitophagy” (eLife, 2018).

Assay [1] addresses T1, S65 phosphorylated ubiquitin produced in bacterial cells (human, UniProt P0CG48 1-76, S65 phosphorylated).
T1 construct: human ubiquitin, the 76-residue mature product, from pET21a(+)/1xUb; Same construct as m13, phosphorylated in the bacteria by co-expressed membrane-anchored TcPINK1; also called monomeric phosphorylated ubiquitin; source: Superdex 75)
Nature of the assay: ITC; 18 injections of 2 μl of 300 μM ubiquitin or phosphorylated ubiquitin into 200 μl of 30 μM GST-mRABGEF1 in the cell; 25°C; TBS buffer; single site binding model. Conditions: both partners purified. (In general: In ITC the heat of successive injections is recorded.)

Assay [2] addresses T2, 1x human ubiquitin (C-terminal His-tagged) (human, UniProt P0CG48 1-76).
T2 construct: human ubiquitin, the 76-residue mature product (primers from the ATG to the codons of the last two glycines); In pET21a(+) between BamHI and XhoI; also called 1x ubiquitin; 1 × Ub; source: E. coli BL21-CodonPlus(DE3)-RIL, purified (Ni-NTA; for ITC also Superdex 75)
The assay is described as above. The following applies: both partners purified.

B1: GST-tagged mouse RABGEF1 (WT) 1-74aa (domain or fragment)
chain: not shown
notes: Expressed with 50 μM ZnCl2 in the medium; also called GST-mRABGEF1 (WT); GST-mRABGEF1 WT; source: E. coli BL21-CodonPlus(DE3)-RIL, purified (glutathione-Sepharose 4B; for ITC also Superdex 75); not shown: GST, N-terminal, kept
For orientation: Kd means the equilibrium constant for the complex coming apart. As for B1, the values for the dissociation constant (Kd) in assay [1] and in assay [2] were 5.6 µM and 2.2 µM, respectively.
